Test [1] deals with T1, hFGFR4_D1:Fc (SABVA4794) (human).
T1 construct: FGF-R4_HUMAN positions 1 to 179 fused to the Fc domain of human IgG1; also called fGFGR4_D1::Fc
The test can be described thus: ELISA on coated subdomain-Fc construct.
Text: (§1) The capture antigen was bound to Immulon-4 enzyme-linked plates (VWR Scientific Inc. Swedesboro, N.J.).

For test [2], the target named is T2, hFGFR4_D2:Fc (SABVA4796) (human).
T2 construct: FGF-R4_HUMAN positions 1 to 32 plus 145 to 242 fused to the Fc domain of human IgG1; also called fGFGR4_D2::Fc
The experiment in a line: ELISA on coated subdomain-Fc construct. A general note: An ELISA detects its analyte on a solid surface through an enzyme-linked reagent.
Text: as §1

Test [3] addresses T3, hFGFR4_D3:Fc (SABVA4799) (human).
T3 construct: also called fGFGR4_D3::Fc
The test can be described thus: ELISA on coated subdomain-Fc construct.
Text: as §1

The target of test [4] is T4, human FGF-R4 recombinant extracellular domain protein, construct not named (human, UniProt P22455 22-369).
T4 construct: extracellular domain; also called the FGF-R4 protein; complete extracellular domain of human FGF-R4
The experiment in a line: SPR (BIAcore), antibody captured by anti-Fc antibody on the chip. (Surface plasmon resonance follows binding to a sensor surface in real time, without labels.)

Test [5] addresses T5, human FGF-R4 expressed on cells (human, UniProt P22455 22-802).
T5 construct: whole, on cells; Functional assays: endogenous receptor of human Hep3b and HUVEC cells; also called human FGF-R4s expressed at the surface of transfected 300-19 cells; FGF-R4 of Hep3b and HUVEC cells
The experiment in a line: displacement of FGF2-AF488 (10 ng/ml) from human FGF-R4 on 300-19 cells.

The target in test [6] is T6, rat FGF-R4 expressed on transfected 300-19 cells (rat, UniProt Q498D6 17-800).
T6 construct: also called rFGFR4
The test can be described thus: displacement of labelled rat FGF2 from rat FGF-R4 on 300-19 cells; rat FGF-R4, rat FGF2; in ng/ml.
Experimental: (§2) Firstly, competition binding experiments were carried out.
(§3) The dissociation experiments were carried out using the 300-19 lines transfected with mouse or rat FGF-R4 receptors.

The target in test [7] is T7, hFGFR1-Fc (human).
T7 construct: Extracellular domain of human FGF-R1 IIIc fused C-terminally to the Fc domain of human IgG1
The test can be described thus: ELISA on plates coated with the 4 human FGF receptors, antibody concentration not given.

For test [8], the target named is T8, hFGFR2-Fc (human).
T8 construct: Extracellular domain of human FGF-R2 IIIc fused C-terminally to the Fc domain of human IgG1
The test is described as above.

Test [9] addresses T9, hFGFR3-Fc (human, UniProt P22607 23-375).
T9 construct: extracellular domain; Bought from R&D Systems; not shown: Fc domain of human IgG1
T9 sequence (looked up): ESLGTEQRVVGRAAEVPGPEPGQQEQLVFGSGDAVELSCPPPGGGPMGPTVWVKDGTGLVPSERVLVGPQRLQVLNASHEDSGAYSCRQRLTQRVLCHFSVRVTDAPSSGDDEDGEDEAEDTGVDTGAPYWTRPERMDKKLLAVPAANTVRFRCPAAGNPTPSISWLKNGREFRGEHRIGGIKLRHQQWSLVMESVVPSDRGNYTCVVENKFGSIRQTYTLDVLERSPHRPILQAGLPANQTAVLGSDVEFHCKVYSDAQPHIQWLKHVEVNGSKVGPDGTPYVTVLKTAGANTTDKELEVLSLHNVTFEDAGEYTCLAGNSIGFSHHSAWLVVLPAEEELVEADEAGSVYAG
The test is described as above.

Test [10] deals with T10, mouse FGF-R4 expressed on transfected 300-19 cells (mouse, UniProt Q03142 17-799).
T10 construct: whole, on cells; also called murine FGF-R4
The experiment in a line: displacement of labelled murine FGF2 from mouse FGF-R4 on 300-19 cells; mouse FGF-R4, murine FGF2; in ng/ml.
Experimental: as §2, §3

The results in this text go back to patent publication US20110150903A1 (Sanofi, published 2011).

“And” between values parts separate entries of the source, which are not always exact repeats. Equal values may be shown once.

B1: anti-FGFR4 antagonist monoclonal antibody 40-12 (antibody, mouse IgG1, kappa, V domains shown)
VH: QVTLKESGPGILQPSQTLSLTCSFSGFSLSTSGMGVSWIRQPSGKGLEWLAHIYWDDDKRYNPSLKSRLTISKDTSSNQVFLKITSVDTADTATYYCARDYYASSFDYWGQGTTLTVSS
VL: DIVLTQSPATLSVTPGDRVSLSCRASQSISNYLHWYQQKSHESPRLLIKYASQSISGIPSRFSGSGSGTDFILSFNSVETEDFGMYFCQQSNSWPFTFGSGTKLEIKR
notes: Purified on protein G; also called clone 40-12; anti-FGFR4 40-12
In general, Kd refers to the free concentration of one partner at which half of the binding sites on the other are occupied at equilibrium, for simple one-to-one binding. The koff is the first-order rate constant of dissociation. The kon is the rate constant with which the complex forms. Usually IC50 stands for the concentration that inhibits the measured activity by half. A low value points to inhibition by little substance. As to B1, the “Signal (O.D., 450 nm)” value was found to be 0.185 O.D. 450 nm in test [1], 3 O.D. 450 nm in test [2] and 0.105 O.D. 450 nm in test [3]. Moreover, the Kd in test [4] stood at 6.5 nM. In addition, the off-rate (koff) in test [4] came to 0.00126 s⁻¹. Further, the kon in test [4] was determined as 194000 M⁻¹ s⁻¹. In addition, the IC50 in test [5] was 3.5 µg/mL and 23 nM; in [6], 3.94 µg/mL; in [10] it was 4.11 µg/mL. The binding result in [7], in test [8] and in test [9] was “no binding” in each case.
